B1: His-tagged NPM1 N-terminal domain (NPM1-NT, aa 1-117) (domain or fragment, human, UniProt P06748 1-117, looked up)
chain: MEDSMDMDMSPLRPQNYLFGCELKADKDYHFKVDNDENEHQLSLRTVSLGAGAKDELHIVEAEAMNYEGSPIKVTLATLKMSVQPTVSLGGFEITPPVVLRLKCGSGPVHISGQHLV
notes: source: E. coli BL21 (DE3), purified (Ni-NTA)

The target in assay [1] is T1, GST-PDCD4 recombinant protein (human, UniProt Q53EL6 1-469).
T1 construct: PDCD4 (programmed cell death 4), human, amplified from cDNA of HEK293T cells and cloned into pGEX-6P-1; pGEX-6P-1 is known to add GST at the N-terminus; also called GST-tagged PDCD4; source: E. coli BL21 (DE3), purified (Glutathione Sepharose 4FF)
T1 sequence (looked up): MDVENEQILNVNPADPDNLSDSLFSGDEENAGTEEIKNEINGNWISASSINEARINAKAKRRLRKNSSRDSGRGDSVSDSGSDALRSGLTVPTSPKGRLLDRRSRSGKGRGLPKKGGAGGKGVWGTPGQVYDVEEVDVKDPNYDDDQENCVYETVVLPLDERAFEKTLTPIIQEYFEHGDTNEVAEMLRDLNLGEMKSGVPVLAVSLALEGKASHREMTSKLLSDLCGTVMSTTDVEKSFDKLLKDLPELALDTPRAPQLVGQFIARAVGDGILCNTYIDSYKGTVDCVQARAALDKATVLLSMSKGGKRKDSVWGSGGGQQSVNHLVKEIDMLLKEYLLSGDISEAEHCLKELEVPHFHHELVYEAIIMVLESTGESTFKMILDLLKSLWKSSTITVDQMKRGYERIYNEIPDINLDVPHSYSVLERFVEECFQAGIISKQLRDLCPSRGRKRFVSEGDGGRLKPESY
As to the kind of experiment: pull-down; GST-PDCD4 immobilised on Glutathione Sepharose 4FF beads, incubated with purified His-tagged proteins; SDS-PAGE, Coomassie blue. The settings on record: both partners purified.

Assay [2] deals with B1. As to the kind of experiment: pull-down; biotinylated PDCD4-NoLS peptide immobilised on streptavidin beads, incubated with purified NPM1 fragment proteins. To be noted: both partners purified.

Ends that are not written are not given here. * marks the point of attachment. Biotin = O=C1N[C@H]2[C@H](CS[C@H]2CCCCC(=O)*)N1

As for B1, the binding result in assay [1] is “binds”.

B2: Biotin-PDCD4-NoLS peptide (peptide)
peptide: Biotin-EARINAKAKRRLRKNSSRDSGRG
notes: PDCD4, human, nucleolar localization signal (NoLS); also called biotinylated PDCD4-NoLS peptides; biotin-tagged PDCD4-NoLS peptide; source: synthetic peptide, bought: GL Biochem; not shown: biotin, N-terminal, kept
Regarding B2, in assay [2], the binding result is recorded as “binds”.
